Test results from the supplement of paper PMC10065799, “High-throughput profiling of sequence recognition by tyrosine kinases and SH2 domains using bacterial peptide display” (eLife, 2023).

The sequences below were run against c-Src SH2 (assay: SH2 binding enrichment of the phosphorylated peptide, bacterial display (enrichment ratio); higher = better substrate or ligand; peptides without Tyr show the background).
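Further: peptide library displayed on the E. coli surface as eCPX fusions, selected cells deep-sequenced, score is each peptide's frequency after selection divided by its frequency in the input.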

Sequence | SH2 binding enrichment
MNPPPYSQFLS [FGF23_Y154] | 0.541
LQFRNYQQLFD [MAN2A1_Y442_K440R] | 1.78
SWKRRYFLLWA [APBB1IP_Y331_R335W] | 0.428
ADRSCYDLSCR [GARS1_Y467_H472R] | 1.17
KNDSKYVVKGN [KIT_Y823_N822K] | 0.572
FSEVRYMKEPF [HIPK4_Y170_V171M_YF] | 0.547
VNFDDYTVNLG [GFPT1_Y367] | 0.408
DDSSAYCSVDE [BCKDHA_Y345_R346C] | 1.21
WASGIYFVPKG [APBB1IP_Y340_R335W_YF] | 0.848
VVLVSYVPSSQ [SH2B1_Y624] | 0.95
ISSLDYISKSK [VAV3_Y294_T298S] | 0.365
PIPAAYNRFDQ [CDC73_Y290_YF] | 0.579
RCYVYYYSYLL [PTEN_Y177_R173C] | 0.407
YSMGCYEFSLG [HMGCL_Y198_I200F] | 0.701
VDLIVYLRTNP [TK2_Y181] | 0.468
LEAVSYSSPYA [RNLS_Y190_R193P] | 2.86
ATGGFYSFGGG [KRT24_Y120_YF] | 0.425

Sequence | SH2 binding enrichment
PKGTGCIKTEL [STAT1_Y701_Y701C] | 0.586
GKVADYIPQLP [GLS_Y249_A254P] | 0.448
NTPNAYLRVNV [ADD2_Y440_T439A] | 0.499
EQKKFYNAMKN [SCN5A_Y1495_K1500N_YF] | 0.381
YQNGMYGLHQD [SGSH_Y89_H84Y] | 1.11
YPPTHYIRRVP [SLC4A11_Y820] | 0.443
SVTCTSSPALN [TP53_Y126_Y126S] | 0.482
LNCAGYCDALE [MTUS1_Y151] | 7.11
AIGYEYSEINI [SIGLEC12_Y588] | 8.56
VVEYGYEFFAK [PPP1CB_Y254_D252Y] | 0.946
TSNQEYLDVSM [FGFR1_Y766_L769V] | 0.567
CFSSEYHFVGG [CTSC_Y345_Y340C_YF] | 0.652
YAKSVYWDNTL [NUP107_Y296_E298D] | 0.587
VHNLDYYKQTT [FGFR3_Y647_K650Q] | 0.49
GISDEYHVIQH [GCDH_Y398_R402Q] | 0.816
HRDDGYMPMSP [IRS1_Y612_T608R] | 3.65

What follows are sequences tested against Grb2 SH2 (UniProt P62993) in the same assay as above.
Sequence of Grb2 SH2 (P62993 whole entry, looked up): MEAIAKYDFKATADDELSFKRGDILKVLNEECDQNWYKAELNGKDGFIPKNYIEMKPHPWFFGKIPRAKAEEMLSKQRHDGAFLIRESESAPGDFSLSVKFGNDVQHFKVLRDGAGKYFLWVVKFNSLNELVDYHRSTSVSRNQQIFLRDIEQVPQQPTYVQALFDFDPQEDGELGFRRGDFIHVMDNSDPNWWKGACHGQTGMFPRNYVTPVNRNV

Sequence | SH2 binding enrichment
MNPPPYSQFLS [FGF23_Y154] | 0.742
LQFRNYQQLFD [MAN2A1_Y442_K440R] | 0.689
SWKRRYFLLWA [APBB1IP_Y331_R335W] | 0.684
ADRSCYDLSCR [GARS1_Y467_H472R] | 1.06
KNDSKYVVKGN [KIT_Y823_N822K] | 0.999
FSEVRYMKEPF [HIPK4_Y170_V171M_YF] | 0.863
VNFDDYTVNLG [GFPT1_Y367] | 0.651
DDSSAYCSVDE [BCKDHA_Y345_R346C] | 1
WASGIYFVPKG [APBB1IP_Y340_R335W_YF] | 1.29
VVLVSYVPSSQ [SH2B1_Y624] | 1.51
ISSLDYISKSK [VAV3_Y294_T298S] | 0.781
PIPAAYNRFDQ [CDC73_Y290_YF] | 0.792
RCYVYYYSYLL [PTEN_Y177_R173C] | 0.668
YSMGCYEFSLG [HMGCL_Y198_I200F] | 0.8
VDLIVYLRTNP [TK2_Y181] | 0.709
LEAVSYSSPYA [RNLS_Y190_R193P] | 0.826
ATGGFYSFGGG [KRT24_Y120_YF] | 0.749

Sequence | SH2 binding enrichment
PKGTGCIKTEL [STAT1_Y701_Y701C] | 0.772
GKVADYIPQLP [GLS_Y249_A254P] | 0.724
NTPNAYLRVNV [ADD2_Y440_T439A] | 0.856
EQKKFYNAMKN [SCN5A_Y1495_K1500N_YF] | 0.751
YQNGMYGLHQD [SGSH_Y89_H84Y] | 5.48
YPPTHYIRRVP [SLC4A11_Y820] | 0.675
SVTCTSSPALN [TP53_Y126_Y126S] | 0.767
LNCAGYCDALE [MTUS1_Y151] | 0.754
AIGYEYSEINI [SIGLEC12_Y588] | 0.656
VVEYGYEFFAK [PPP1CB_Y254_D252Y] | 0.942
TSNQEYLDVSM [FGFR1_Y766_L769V] | 0.811
CFSSEYHFVGG [CTSC_Y345_Y340C_YF] | 0.944
YAKSVYWDNTL [NUP107_Y296_E298D] | 0.858
VHNLDYYKQTT [FGFR3_Y647_K650Q] | 0.984
GISDEYHVIQH [GCDH_Y398_R402Q] | 0.804
HRDDGYMPMSP [IRS1_Y612_T608R] | 0.746
